Measurements reported in patent US20050043234A1 (published 2005).
Values joined by “and” are separate entries in the source; they are usually repeats but may differ in a detail not shown here. Equal entries are not always repeated.

B1: zFGF5 (ligand)
chain: EENVDFRIHVENQTRARDDVSRKQLRLYQLYSRTSGKHIQVLGRRISARGEDGDKYAQLLVETDTFGSQVRIKGKETEFYLCMNRKGKLVGKPDGTSKECVFIEKVLENNYTALMSAKYSGWYVGFTKKGRPRKGPKTRENQQDVHFMKRYPKGQPELQKPFKYTTVTKRSRRIRPTHPA
B2: FGFR3α-IIIc/Fc (Fc fusion, not shown: a dimerising Fc or GST; small tags and cut ends)
chain: ESLGTEQRVVGRAAEVPGPEPGQQEQLVFGSGDAVELSCPPPGGGPMGPTVWVKDGTGLVPSERVLVGPQRLQVLNASHEDSGAYSCRQRLTQRVLCHFSVRVTDAPSSGDDEDGEDEAEDTGVDTGAPYWTRPERMDKKLLAVPAANTVRFRCPAAGNPTPSISWLKNGREFRGEHRIGGIKLRHQQWSLVMESVVPSDRGNYTCVVENKFGSIRQTYTLDVLERSPHRPILQAGLPANQTAVLGSDVEFHCKVYSDAQPHIQWLKHVEVNGSKVGPDGTPYVTVLKTAGANTTDKELEVLSLHNVTFEDAGEYTCLAGNSIGFSHHSAWLVVLPAEEELVEADEAGSVYAG
B3: FGFR1α-IIIc/Fc (Fc fusion, not shown: a dimerising Fc or GST; small tags and cut ends)
chain: RPSPTLPEQAQPWGAPVEVESFLVHPGDLLQLRCRLRDDVQSINWLRDGVQLAESNRTRITGEEVEVQDSVPADSGLYACVTSSPSGSDTTYFSVNVSDALPSSEDDDDDDDSSSEEKETDNTKPNRMPVAPYWTSPEKMEKKLHAVPAAKTVKFKCPSSGTPNPTLRWLKNGKEFKPDHRIGGYKVRYATWSIIMDSVVPSDKGNYTCIVENEYGSINHTYQLDVVERSPHRPILQAGLPANKTVALGSNVEFMCKVYSDPQPHIQWLKHIEVNGSKIGPDNLPYVQILKTAGVNTTDKEMEVLHLRNVSFEDAGEYTCLAGNSIGLSHHSAWLTVLEALEERPAVMTSPLYLE

How the values were obtained:
Experiment in all cases: cell-based or functional assay
FGFR2α-IIIc [1] = biological target: FGFR2α-IIIc
FGFR3α-IIIc [2] = biological target: FGFR3α-IIIc
FGFR1α-IIIb = biological target: FGFR1α-IIIb
FGFR1α-IIIc = biological target: FGFR1α-IIIc
FGFR2α-IIIb = biological target: FGFR2α-IIIb
FGFR2α-IIIc [3] = biological target: FGFR2α-IIIc; remark: listed apart in the source
FGFR3α-IIIb = biological target: FGFR3α-IIIb
FGFR3α-IIIc [4] = biological target: FGFR3α-IIIc; remark: listed apart in the source
zFGF5 = biological target: B1

## B1
FGFR2α-IIIc [1]
  EC50 of cell proliferation response: ~10 ng/mL and ~20 ng/mL
FGFR3α-IIIc [2]
  EC50 of cell proliferation response: ~1 ng/mL and ~2 ng/mL
FGFR1α-IIIb
  Alamar Blue Units (cell proliferation), zFGF5 at 1.6 ng/ml: 0 Alamar Blue Units
  Alamar Blue Units (cell proliferation), zFGF5 at 3.1 ng/ml: 1.7 Alamar Blue Units
  Alamar Blue Units (cell proliferation), zFGF5 at 6.2 ng/ml: 1.3 Alamar Blue Units
  Alamar Blue Units (cell proliferation), zFGF5 at 12.5 ng/ml: 0 Alamar Blue Units
  Alamar Blue Units (cell proliferation), zFGF5 at 25 ng/ml: 10.9 Alamar Blue Units
  Alamar Blue Units (cell proliferation), zFGF5 at 50 ng/ml: 0 Alamar Blue Units
  Alamar Blue Units (cell proliferation), zFGF5 at 100 ng/ml: 0 Alamar Blue Units
  Alamar Blue Units (cell proliferation), zFGF5 at 200 ng/ml: 0 Alamar Blue Units
FGFR1α-IIIc
  Alamar Blue Units (cell proliferation), zFGF5 at 1.6 ng/ml: 2.6 Alamar Blue Units
  Alamar Blue Units (cell proliferation), zFGF5 at 3.1 ng/ml: 4.2 Alamar Blue Units
  Alamar Blue Units (cell proliferation), zFGF5 at 6.2 ng/ml: 14.2 Alamar Blue Units
  Alamar Blue Units (cell proliferation), zFGF5 at 12.5 ng/ml: 29.9 Alamar Blue Units
  Alamar Blue Units (cell proliferation), zFGF5 at 25 ng/ml: 86 Alamar Blue Units
  Alamar Blue Units (cell proliferation), zFGF5 at 50 ng/ml: 224 Alamar Blue Units
  Alamar Blue Units (cell proliferation), zFGF5 at 100 ng/ml: 488 Alamar Blue Units
  Alamar Blue Units (cell proliferation), zFGF5 at 200 ng/ml: 912 Alamar Blue Units
FGFR2α-IIIb
  Alamar Blue Units (cell proliferation), zFGF5 at 1.6 ng/ml: 0.2 Alamar Blue Units
  Alamar Blue Units (cell proliferation), zFGF5 at 3.1 ng/ml: 0.06 Alamar Blue Units
  Alamar Blue Units (cell proliferation), zFGF5 at 6.2 ng/ml: 0 Alamar Blue Units
  Alamar Blue Units (cell proliferation), zFGF5 at 12.5 ng/ml: 0.4 Alamar Blue Units
  Alamar Blue Units (cell proliferation), zFGF5 at 25 ng/ml: 0.2 Alamar Blue Units
  Alamar Blue Units (cell proliferation), zFGF5 at 50 ng/ml: 0.5 Alamar Blue Units
  Alamar Blue Units (cell proliferation), zFGF5 at 100 ng/ml: 1.3 Alamar Blue Units
  Alamar Blue Units (cell proliferation), zFGF5 at 200 ng/ml: 1.3 Alamar Blue Units
FGFR2α-IIIc [3]
  Alamar Blue Units (cell proliferation), zFGF5 at 1.6 ng/ml: 241 Alamar Blue Units
  Alamar Blue Units (cell proliferation), zFGF5 at 3.1 ng/ml: 480 Alamar Blue Units
  Alamar Blue Units (cell proliferation), zFGF5 at 6.2 ng/ml: 715 Alamar Blue Units
  Alamar Blue Units (cell proliferation), zFGF5 at 12.5 ng/ml: 977 Alamar Blue Units
  Alamar Blue Units (cell proliferation), zFGF5 at 25 ng/ml: 1310 Alamar Blue Units
  Alamar Blue Units (cell proliferation), zFGF5 at 50 ng/ml: 1520 Alamar Blue Units
  Alamar Blue Units (cell proliferation), zFGF5 at 100 ng/ml: 1720 Alamar Blue Units
  Alamar Blue Units (cell proliferation), zFGF5 at 200 ng/ml: 1790 Alamar Blue Units
FGFR3α-IIIb
  Alamar Blue Units (cell proliferation), zFGF5 at 1.6 ng/ml: 0 Alamar Blue Units
  Alamar Blue Units (cell proliferation), zFGF5 at 3.1 ng/ml: 0 Alamar Blue Units
  Alamar Blue Units (cell proliferation), zFGF5 at 6.2 ng/ml: 0 Alamar Blue Units
  Alamar Blue Units (cell proliferation), zFGF5 at 12.5 ng/ml: 0 Alamar Blue Units
  Alamar Blue Units (cell proliferation), zFGF5 at 25 ng/ml: 1.4 Alamar Blue Units
  Alamar Blue Units (cell proliferation), zFGF5 at 50 ng/ml: 19 Alamar Blue Units
  Alamar Blue Units (cell proliferation), zFGF5 at 100 ng/ml: 189 Alamar Blue Units
  Alamar Blue Units (cell proliferation), zFGF5 at 200 ng/ml: 472 Alamar Blue Units
FGFR3α-IIIc [4]
  Alamar Blue Units (cell proliferation), zFGF5 at 1.6 ng/ml: 1400 Alamar Blue Units
  Alamar Blue Units (cell proliferation), zFGF5 at 3.1 ng/ml: 2000 Alamar Blue Units
  Alamar Blue Units (cell proliferation), zFGF5 at 6.2 ng/ml: 2580 Alamar Blue Units
  Alamar Blue Units (cell proliferation), zFGF5 at 12.5 ng/ml: 3200 Alamar Blue Units
  Alamar Blue Units (cell proliferation), zFGF5 at 25 ng/ml: 3760 Alamar Blue Units
  Alamar Blue Units (cell proliferation), zFGF5 at 50 ng/ml: 3960 Alamar Blue Units
  Alamar Blue Units (cell proliferation), zFGF5 at 100 ng/ml: 4120 Alamar Blue Units
  Alamar Blue Units (cell proliferation), zFGF5 at 200 ng/ml: 4200 Alamar Blue Units

## B2
zFGF5
  Cell Proliferation (percent of control), BAF3/FGFR3α-IIIc cells with zFGF5, soluble receptor at 0 fold-excess: 100 percent of control
  Cell Proliferation (percent of control), BAF3/FGFR3α-IIIc cells with zFGF5, soluble receptor at 0.8 fold-excess: 85 percent of control
  Cell Proliferation (percent of control), BAF3/FGFR3α-IIIc cells with zFGF5, soluble receptor at 1.6 fold-excess: 66 percent of control
  Cell Proliferation (percent of control), BAF3/FGFR3α-IIIc cells with zFGF5, soluble receptor at 3.2 fold-excess: 37 percent of control
  Cell Proliferation (percent of control), BAF3/FGFR3α-IIIc cells with zFGF5, soluble receptor at 6.3 fold-excess: 5 percent of control
  Cell Proliferation (percent of control), BAF3/FGFR3α-IIIc cells with zFGF5, soluble receptor at 12.5 fold-excess: 1 percent of control
  Cell Proliferation (percent of control), BAF3/FGFR3α-IIIc cells with zFGF5, soluble receptor at 25 fold-excess: 0.2 percent of control
  Cell Proliferation (percent of control), BAF3/FGFR3α-IIIc cells with zFGF5, soluble receptor at 50 fold-excess: 0 percent of control
  Cell Proliferation (percent of control), BAF3/FGFR3α-IIIc cells with zFGF5, soluble receptor at 100 fold-excess: 0 percent of control

## B3
zFGF5
  Cell Proliferation (percent of control), BAF3/FGFR3α-IIIc cells with zFGF5, soluble receptor at 0 fold-excess: 100 percent of control
  Cell Proliferation (percent of control), BAF3/FGFR3α-IIIc cells with zFGF5, soluble receptor at 7.5 fold-excess: 92 percent of control
  Cell Proliferation (percent of control), BAF3/FGFR3α-IIIc cells with zFGF5, soluble receptor at 15.4 fold-excess: 96 percent of control
  Cell Proliferation (percent of control), BAF3/FGFR3α-IIIc cells with zFGF5, soluble receptor at 31 fold-excess: 99 percent of control
  Cell Proliferation (percent of control), BAF3/FGFR3α-IIIc cells with zFGF5, soluble receptor at 62.5 fold-excess: 104 percent of control
  Cell Proliferation (percent of control), BAF3/FGFR3α-IIIc cells with zFGF5, soluble receptor at 125 fold-excess: 101 percent of control
  Cell Proliferation (percent of control), BAF3/FGFR3α-IIIc cells with zFGF5, soluble receptor at 250 fold-excess: 100 percent of control
  Cell Proliferation (percent of control), BAF3/FGFR3α-IIIc cells with zFGF5, soluble receptor at 500 fold-excess: 102 percent of control
  Cell Proliferation (percent of control), BAF3/FGFR3α-IIIc cells with zFGF5, soluble receptor at 1000 fold-excess: 92.3 percent of control
